This passage reports mean fluorescence lifetime of the donor (co-expressed with RESIS) results from PMC12713027.

In this experiment the target is NAA15-mCherry (rice (Oryza sativa, japonica cultivar Zhonghua 11)). Description: FRET or BRET; FLIM-FRET in rice protoplasts, donor NAA10-eGFP and acceptor NAA15-mCherry co-expressed with pRTV-RESIS, 16 h after transfection. On the technique in general: In BRET a luciferase serves as donor, and the signal depends on an acceptor being close.

On to NAA10-eGFP (natural protein), for which the mean fluorescence lifetime of the donor (co-expressed with RESIS) is 2.45 ns.
